Measurements from article PMC5779224 (2017).

Experiments:
[1] = target: T1, AnkG 38–903 (MBD + AI-c + AI-b) (rat, UniProt O70511-1 38-903); test: ITC
T1 chain: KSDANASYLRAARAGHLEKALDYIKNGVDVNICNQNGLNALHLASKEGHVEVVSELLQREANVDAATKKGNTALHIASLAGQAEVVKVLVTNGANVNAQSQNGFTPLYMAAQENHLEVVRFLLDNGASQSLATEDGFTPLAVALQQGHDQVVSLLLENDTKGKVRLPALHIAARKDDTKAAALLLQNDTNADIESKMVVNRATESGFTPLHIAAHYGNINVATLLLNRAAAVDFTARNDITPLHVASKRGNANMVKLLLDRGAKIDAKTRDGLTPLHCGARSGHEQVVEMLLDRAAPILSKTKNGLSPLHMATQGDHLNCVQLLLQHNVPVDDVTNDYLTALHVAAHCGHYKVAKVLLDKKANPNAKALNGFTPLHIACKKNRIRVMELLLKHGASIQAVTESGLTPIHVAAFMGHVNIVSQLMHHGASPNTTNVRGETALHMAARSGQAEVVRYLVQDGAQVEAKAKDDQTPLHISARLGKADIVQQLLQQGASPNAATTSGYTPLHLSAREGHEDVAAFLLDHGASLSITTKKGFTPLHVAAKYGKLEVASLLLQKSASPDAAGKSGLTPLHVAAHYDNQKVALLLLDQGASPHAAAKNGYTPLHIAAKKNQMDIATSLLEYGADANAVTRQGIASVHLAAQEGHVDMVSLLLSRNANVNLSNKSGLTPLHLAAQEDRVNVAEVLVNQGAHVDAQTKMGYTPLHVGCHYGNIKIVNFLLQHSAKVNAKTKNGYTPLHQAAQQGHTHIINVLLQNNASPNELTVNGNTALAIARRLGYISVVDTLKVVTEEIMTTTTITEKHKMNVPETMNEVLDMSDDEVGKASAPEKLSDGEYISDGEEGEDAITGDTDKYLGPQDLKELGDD

[2] = target: T2, AnkG 38–855 (AnkG MBD-AI-c protein; MBD + partial AI-c) (rat, UniProt O70511-1 38-855); test: ITC; reported in Wang et al 2014
T2 chain: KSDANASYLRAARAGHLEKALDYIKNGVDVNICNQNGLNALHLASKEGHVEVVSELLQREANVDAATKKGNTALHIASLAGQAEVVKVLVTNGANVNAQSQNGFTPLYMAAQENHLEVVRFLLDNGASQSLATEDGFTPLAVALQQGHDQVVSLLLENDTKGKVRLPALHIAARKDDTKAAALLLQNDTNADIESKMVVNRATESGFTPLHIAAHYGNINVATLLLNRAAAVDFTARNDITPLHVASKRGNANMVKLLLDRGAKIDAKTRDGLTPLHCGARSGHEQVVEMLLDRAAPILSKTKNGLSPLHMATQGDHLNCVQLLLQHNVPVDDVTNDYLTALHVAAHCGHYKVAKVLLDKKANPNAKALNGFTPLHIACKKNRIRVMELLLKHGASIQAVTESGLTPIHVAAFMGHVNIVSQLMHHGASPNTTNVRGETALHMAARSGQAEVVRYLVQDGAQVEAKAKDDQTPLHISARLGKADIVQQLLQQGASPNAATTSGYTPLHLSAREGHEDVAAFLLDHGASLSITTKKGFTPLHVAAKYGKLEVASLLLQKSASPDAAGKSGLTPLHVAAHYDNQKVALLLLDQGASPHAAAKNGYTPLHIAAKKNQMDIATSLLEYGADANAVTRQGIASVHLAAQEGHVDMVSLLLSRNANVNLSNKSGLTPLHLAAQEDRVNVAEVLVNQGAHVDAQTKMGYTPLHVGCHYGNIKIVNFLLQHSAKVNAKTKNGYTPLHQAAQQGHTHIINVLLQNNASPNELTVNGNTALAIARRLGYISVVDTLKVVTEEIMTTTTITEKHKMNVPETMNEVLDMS

Kd [1]: 4200 nM
Kd [2]: 210 nM
Binder: SDDSLVDYGEGGEGQFNEDGSFIGQYTV (domain or fragment) [NF186 (aa 1187–1214)]
